# Measurements: the RNAGym collection of RNA variant scans (doi:10.1073/pnas.2313332121)
# B1: TPR t1 (parent)
# chain: GACCAAUCUGCCCUCAGAGCUCGAGAACAUCUUCGGAUGCAGAGGAGGCAGGCUUCGGUGGCGCGAUAGCGCCAACGUCCUCAACCUCCAAUGCAUCCCACCACAUGAUGAUGCCUGAAGAGCCUUGGUUUUUUG
# Variants of: B1
# Assay: polymerase ribozyme fitness, log enrichment relative to wild type (log ratio); higher = more active; in vitro selection for triplet polymerase activity
# Procedure, shortened: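 Fitness compares each genotype's enrichment to that of the wild type on a logarithmic scale, averaging replicates with inverse-variance weights. The logarithm is base 2. Enrichment came from Illumina sequencing of input and output libraries after one triplicate round of in vitro selection, which included frozen incubation at −7 °C, of PCR-built, transcribed mutant libraries of each subunit of a heterodimeric triplet polymerase ribozyme. Only genotypes with ≥10 input reads and ≥1 read per output were kept.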
row,Variant,polymerase ribozyme fitness (log ratio)
1,GACCAAUCUGCGCUCAGAGUUCGAGAACAUCUUCGGAUGCAGAGGAGGCAGGCUUCGGUGGCGCGAUAGCGCCAAAGUCCUCAACCUCCAAUGCAUCCCACCACAUGAUGAUGCCUGAAGAGCCUUGGUUUUUUG [C12G C20U C76A],-1.37
2,GACCAAUCUGCGCUCAGAGCUCGAGAAUAUCUUCGGAUGCAGAGGAGGCAGGCUUCGGUGGCGCGAUAGCGCCAACGUCCUCAACCUCCAAUGCAUCCCACCACAUGAUGAUGCCUGAAGAGCCUUGGUUUUUUG [C12G C28U],-0.928
3,GACCAAUCUGCGCUCAGAGCUCGAGAACAUCUUGGGAUGCAGAGGAGGCAGGCUUCGGUGGCGCGAUAUCGCCAACGUCCUCCACCUCCAAUGCAUCCCACCACAUGAUGAUGCCUGAAGAGCCUUGGUUUUUUG [C12G C34G G69U A83C],-3.04
4,GACCAAUCUGCGCUCAGAGCUCGAGAACAUCUUCGGAUGCAGAGGAGGCAGGCUUAGGUGGCGCGAUAGCGCCAACGUCCUCAACCUCCAAUGCAUCCCACCACAUGAUGAUGCCUGAAGAGCCUUGGUUUUUUG [C12G C56A],0.208
5,GACCAAUCUGCGCUCAGAGCUCGAGAACAUCUUCGGAUGCAGAGGGGGCAGGCUUCGGUGGCACGAUAGCGCCAACGUCCUCAACCUCCAAUGCAUCCCACCACAUGAUGAUGCGUGAAGAGCCUUGGUUUUUUG [C12G A46G G63A C115G],-6.03
6,GACCAAUCUGCGCUCAGAGCUCGAGAACAUCUUCGGAUGCAGAGGAGGCAGGAUUCGGUGGCGCGAUAGCGCGAACGUCCUCAACCUCCAAUGCAUCCCACCACAUCAUGACGCCUGAAGAGCCUUGGUUUUUUG [C12G C53A C73G G107C U112C],-3.66
7,GACCAAUCUGCGAUCAGAGCUCGAGAACAUCUUCGGAUGCACAGGAGGCAGGCUUCGGUGGCGCGAUAACGCCAACGUCCUCAACCUCCAAUGCAUCCCACCACAUGAUGAUGCCUCUAGAGCCUUGGUUUUUGG [C12G C13A G42C G69A G117C A118U U134G],-4.53
8,GACCAAUCUGCGCUCAGAGCUCGAGAACAUCUUCGGAUGCAGAGGAGGCAGGCUUCGGUGGCGCGAUAGCGUCAACGUCCUCAACCUCCAAUGCAUCCCACCACAUGAUGAUGCCAGAAUAGCCUUGGUUUUUUG [C12G C72U U116A G120U],-0.787
9,GACCAAUCUGCGCUCAGAGCUCGAGAACAUCUUCGGAUGCAGAGGAGGCAGGCUUCGGUGGCGCGAUAGCGACAACGUCCUCAACCUCCAAUGCAUCCCACCAUAUGAUGAUGCCUGAAGAGUAUUGGUUUUUUG [C12G C72A C104U C123U C124A],1.79
10,GACCAAUCUGCGCUGAGAGCUCGAGAACAUCUUCGGAUGCAGAGAAGGCAGGCUUCGGUGCCGCGAUAGCGCCAACGUCCUCAACCUCCAAUGCAUCCCACCACAUGAUGAUGCCUGAAGAGCCUUGGUUUUUUG [C12G C15G G45A G61C],-4.58
11,GACCAAUCUGCGCUCAGAGCUCGAGAACAUCUUGGGAUGCAGAGGAGGCAGGCUUCGGUGGCGCGAUAGCGCCAACGUCCUCAACCUCCAAUGCAUCCCACCACAUGAUGAUGACUGAAGAGCCUUGGUUUUUUG [C12G C34G C114A],-6.75
12,GACCAAUCUGCGCUCAGAGCUCGAGAACAUCUUCGGAUGCAGAGGAGGGAGGCUUCGGUGGCGCGAUAGAGCCAACGUCCUCAACCUCCAAUGCAUUCCACCACAUGAUGAUGCCUGAAGAGCCUUGGUUUUUUG [C12G C49G C70A C97U],-1.84
13,GACCAAUCUGCGUUCAGAGCUCGAGAACAUCUUCGGAUGCAGAGGAGGCAGGCUUCGGUGGCGCGAUAGCGCCAACGUCCUCAACCUCCAAUGCAUCCCACCACAUGAUGAUGCCUGAAGAGCCUUGGUUUUUUG [C12G C13U],-0.223
14,GACCAAUCUGCGCUUAGAGCUCGAGAACAUCUUCGGAUGCAGAGGAGGCAGGCUUCGGUGGCGCGAUAGCGCCAACGUCCUCAACCUCCAAUGCAUCCCACCACAUGAUGAUGCCUGAAGAGCCUUGGUUUUUUG [C12G C15U],-0.505
15,GACCAAUCUGCGCUCAGAGCUCGAGAACAUCUUCGGAUGCAGAGGAGGCAGGCUUCGGUGGCGGGAUAGCGCCAACGUCCUCAACCUCCAAUGCAUCCCACCACAUGAUGAUGCCUGAAGAGCCUUGGUUUUUUG [C12G C64G],-5.49
16,GACCAAUCUGCGCUCAGAGCUCGAGAACAUCUUCGGAUGCAGAGGAGGCAGGCUUCGGUGGCGUGAUAGCGCCAACGUCCUCAACCUCCAAUGCAUCCCACCACAUGAUGAUGCCUGAAGAGCCUUGGUUUUUUG [C12G C64U],0.291
17,GACCAAUCUGCGCUCAGAGCUCGAGAACAUCUUCGGAUGGAGAGGAGGCAGGCUUCGGUGGCGCGAUAGCGCCAACGUCCUCAACCUCCAAUGCAUCCCACCACAUGAUGAUGCCUGAAGAGCCUUGGUUUUUUG [C12G C40G],-1.2
18,GACCAAUCUGCGCUCAGAGUUCGAGAACAUCUUCGGAUGCAGAGGAGGCAGGCUUCGGUGGCGCGAUAGCGCCAACGUCCUCAACCUCCAAUGCAUCCCACCACAUGAUGAUGCCUGAAGAGUCCUGGUUUUUUG [C12G C20U C123U U125C],-0.31
19,GACCAAUCUGCGCUCAGAGCUCGAGAACAUCUUCGGAUGCAGAGGAGGCAGGCUUCGGUGGCGCGAUAGCGCCAACGUCCUCAACCUCCAAUGCAUCCCACCUCAUGAUGAUGCCUGAAGAGCCUUGGUUUUUUG [C12G A103U],-4.83
20,GACCAAUCUGCGCUCAGAGUUCGAGAACAUCUUCGGAUGCAGAGGAGGCAGGCUUCGGUGGCGCGAUAGCGUCAACGUCCUCAACCUCCAAUGCAUCCCACCACAUGAUGAUGCCUUAAGAGCCUUGGUUUUUUG [C12G C20U C72U G117U],-2.78
21,GACCAAUCUGCGCUCAGAGCUCGAGAACAUCUUCGGAUGCAGAGGAGGCAGGCUUCGGUGGUGCGAUAGCGCCAACGUCCUCAACCUCCAAUGCAUCCCACCACAUGAUGAUGCCAGAAGAGCCUUGGUUUUUUG [C12G C62U U116A],-2.68
